{"source": "paper PMC9911596", "about": "(Nature Communications, 2023)", "molecules": {"B1": {"name": "Vtc1 (natural protein, Baker's yeast)", "chain": "SSAPLLQRTPGKKIALPTRVEPKVFFANERTFLSWLNFTVMLGGLGVGLLNFGDKIGRVSAGLFTFVAMGTMIYALVTYHWRAAAIRRRGSGPYDDRLGPTLLCFFLLVAVIINFILRLKYNDANTKL", "notes": "Vtc1, yeast, UniProt P40046; codon-optimized DNA in the pMlink vector; Three copies of Vtc1 stand in the Vtc1/Vtc3/Vtc4 complex (3:1:1); also called Vtc1A; Vtc1B; source: Expi293F cells, transiently cotransfected with the Vtc3 and Vtc4 plasmids; purified as part of the VTC complex (anti-Flag resin, Strep-Tactin resin; SEC for the cryo-EM sample)"}, "B2": {"name": "Vtc4_(R264A/R266A/E426N) (natural protein, Baker's yeast)", "chain": "KFGEHLSKSLIRQYSYYYISYDDLKTELEDNLSKNNGQWTQELETDFLESLEIELDKVYTFCKVKHSEVFRRVKEVQEQVQHTVRLLDSNNPPTQLDFEILEEELSDIIADVHDLAKFSRLNYTGFQKIIKKHDKKTGFILKPVFQVRLDSKPFFKENYDELVVKISQLYDIARTSGRPIKGDSSAGGKQQNFVRQTTKYWVHPDNITELKLIILKHLPVLVFNTNKEFEREDSAITSIYFDNENLDLYYGRLRKDEGAEAHALAWYGGMSTDTIFVERKTHREDWTGEKSVKARFALKERHVNDFLKGKYTVDQVFAKMRKEGKKPMNEIENLEALASEIQYVMLKKKLRPVVRSFYNRTAFQLPGDARVRISLDTELTMVREDNFDGVDRTHKNWRRTDIGVDWPFKQLDDKDICRFPYAVLNVKLQTQLGQEPPEWVRELVGSHLVEPVPKFSKFIHGVATLLNDKVDSIPFWLPQMDVDIRKPPLPTNIEITRPGRSDNEDNDFDEDDEDDAALVAAMTNAPGNSLDIEESVGYGATSAPTSNTNHVVESANAAYYQRKIRNAENPISKKYYEIVAFFDHYFNGDQISKIPKGTTFDTQIRAPPGKTICVPVRVEPKVYFATERTYLSWLSISILLGGVSTTLLTYGSPTAMIGSIGFFITSLAVLIRTVMVYAKRVVNIRLKRAVDYEDKIGPGMVSVFLILSILFSFFCNLVAK", "notes": "Vtc4, yeast, UniProt P47075; codon-optimized DNA in the pMlink vector; three substitutions in the TTM domain; also called catalytically impaired Vtc4; source: Expi293F cells, transiently cotransfected with the Vtc1 and Vtc3 plasmids; purified as part of the VTC complex with 1 mM InsP6 (anti-Flag resin, Strep-Tactin resin, SEC); not shown: 2×Strep, C-terminal, kept"}}, "key": {"[1]": {"target": "T1, Vtc1/Vtc3/Vtc4 complex (VTC complex) (Saccharomyces cerevisiae, UniProt P47075+Q02725)", "T1 construct": "full-length subunits co-expressed in Expi293F; Vtc1 C-terminal HA, Vtc3 N-terminal 3xFlag, Vtc4 C-terminal 2xStrep; detergent-purified; 3:1:1 pentamer; with Vacuolar transporter chaperone complex subunit 1", "T1 sequence (P47075 1-721)": "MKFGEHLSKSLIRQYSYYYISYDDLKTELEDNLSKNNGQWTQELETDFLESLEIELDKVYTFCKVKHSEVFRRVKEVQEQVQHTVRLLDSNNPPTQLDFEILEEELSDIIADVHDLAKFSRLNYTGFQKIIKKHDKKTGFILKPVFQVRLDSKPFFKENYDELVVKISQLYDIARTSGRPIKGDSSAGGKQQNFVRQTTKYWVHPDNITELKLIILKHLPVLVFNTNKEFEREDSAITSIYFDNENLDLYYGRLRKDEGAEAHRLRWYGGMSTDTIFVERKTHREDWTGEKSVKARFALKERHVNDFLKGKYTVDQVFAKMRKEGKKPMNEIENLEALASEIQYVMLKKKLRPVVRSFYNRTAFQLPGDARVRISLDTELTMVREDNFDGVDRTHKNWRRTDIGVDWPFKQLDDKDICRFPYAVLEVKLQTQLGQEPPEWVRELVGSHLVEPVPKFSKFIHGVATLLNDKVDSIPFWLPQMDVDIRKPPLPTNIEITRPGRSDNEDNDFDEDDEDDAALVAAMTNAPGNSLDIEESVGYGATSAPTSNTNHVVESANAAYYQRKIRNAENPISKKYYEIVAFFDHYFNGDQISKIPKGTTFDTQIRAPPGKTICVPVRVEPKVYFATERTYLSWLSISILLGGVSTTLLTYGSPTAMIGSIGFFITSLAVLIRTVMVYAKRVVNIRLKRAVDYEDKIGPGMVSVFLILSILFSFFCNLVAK", "T1 sequence (Q02725 1-835)": "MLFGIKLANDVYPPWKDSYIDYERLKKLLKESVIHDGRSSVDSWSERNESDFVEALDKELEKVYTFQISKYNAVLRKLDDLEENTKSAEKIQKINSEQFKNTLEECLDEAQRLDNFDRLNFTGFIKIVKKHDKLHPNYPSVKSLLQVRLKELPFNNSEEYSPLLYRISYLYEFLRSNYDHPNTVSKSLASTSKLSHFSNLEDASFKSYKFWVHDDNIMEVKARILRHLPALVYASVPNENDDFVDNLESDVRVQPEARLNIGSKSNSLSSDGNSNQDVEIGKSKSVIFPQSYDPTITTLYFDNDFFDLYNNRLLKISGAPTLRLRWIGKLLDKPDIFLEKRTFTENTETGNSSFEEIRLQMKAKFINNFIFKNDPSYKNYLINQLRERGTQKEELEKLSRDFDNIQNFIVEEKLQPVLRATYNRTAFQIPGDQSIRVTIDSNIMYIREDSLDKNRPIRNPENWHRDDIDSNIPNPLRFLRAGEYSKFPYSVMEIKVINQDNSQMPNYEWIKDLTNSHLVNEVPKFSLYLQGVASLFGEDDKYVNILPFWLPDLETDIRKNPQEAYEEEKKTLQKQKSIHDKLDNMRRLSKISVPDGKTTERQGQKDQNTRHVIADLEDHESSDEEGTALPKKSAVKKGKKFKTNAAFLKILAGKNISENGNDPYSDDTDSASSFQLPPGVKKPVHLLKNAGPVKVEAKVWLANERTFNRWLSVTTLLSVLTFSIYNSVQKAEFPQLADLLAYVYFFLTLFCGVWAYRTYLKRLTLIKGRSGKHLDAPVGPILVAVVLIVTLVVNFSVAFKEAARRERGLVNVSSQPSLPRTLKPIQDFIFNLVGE", "T1 sequence (P40046 2-129 partner)": "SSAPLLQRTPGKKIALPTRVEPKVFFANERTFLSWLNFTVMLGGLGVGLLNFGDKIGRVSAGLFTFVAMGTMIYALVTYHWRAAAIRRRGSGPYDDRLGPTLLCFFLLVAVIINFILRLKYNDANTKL", "assay": "polyP synthesis, TBE-PAGE and DAPI", "assay_type": "biochemical", "conditions": "15 mM ATP, 10 mM MgCl2, 1 mM MnCl2, 0.5 mM pyrophosphate, InsP6, 27 °C, 4 h"}, "Vtc3": {"target": "T2, Vtc3 (Baker's yeast, UniProt Q02725 1-835)", "T2 construct": "Vtc3, yeast, UniProt Q02725; codon-optimized DNA in the pMlink vector; source: Expi293F cells, transiently cotransfected with the Vtc1 and Vtc4 plasmids; purified as part of the VTC complex (anti-Flag resin, Strep-Tactin resin; SEC for the cryo-EM sample); not shown: 3×Flag, N-terminal, kept", "T2 sequence": "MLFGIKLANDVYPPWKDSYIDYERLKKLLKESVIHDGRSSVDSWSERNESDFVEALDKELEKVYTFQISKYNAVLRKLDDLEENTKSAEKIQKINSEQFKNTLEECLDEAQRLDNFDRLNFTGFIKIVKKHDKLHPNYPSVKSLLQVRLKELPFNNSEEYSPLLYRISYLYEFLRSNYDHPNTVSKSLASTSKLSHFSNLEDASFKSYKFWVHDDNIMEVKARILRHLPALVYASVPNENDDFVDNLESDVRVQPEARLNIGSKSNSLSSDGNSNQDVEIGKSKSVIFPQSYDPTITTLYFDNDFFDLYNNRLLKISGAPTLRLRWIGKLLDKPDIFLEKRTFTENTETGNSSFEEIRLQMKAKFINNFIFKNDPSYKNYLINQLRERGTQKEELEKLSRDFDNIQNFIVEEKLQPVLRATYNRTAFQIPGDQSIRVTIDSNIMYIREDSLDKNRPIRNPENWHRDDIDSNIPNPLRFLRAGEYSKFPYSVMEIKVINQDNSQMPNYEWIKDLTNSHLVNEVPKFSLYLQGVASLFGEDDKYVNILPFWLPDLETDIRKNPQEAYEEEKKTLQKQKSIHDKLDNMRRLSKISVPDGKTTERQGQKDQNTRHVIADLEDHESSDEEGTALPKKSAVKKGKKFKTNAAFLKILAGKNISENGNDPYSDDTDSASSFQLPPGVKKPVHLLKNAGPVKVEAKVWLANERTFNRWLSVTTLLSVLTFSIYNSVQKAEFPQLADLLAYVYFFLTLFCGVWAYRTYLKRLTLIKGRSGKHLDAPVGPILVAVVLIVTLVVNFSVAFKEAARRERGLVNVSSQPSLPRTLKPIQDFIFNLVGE", "assay": "cryo-EM structure; Vtc1/Vtc3/Vtc4_(R264A/R266A/E426N) complex co-expressed in Expi293F and purified with 1 mM InsP6, 0.02% GDN, 25 mM Tris-HCl pH 8.0, 150 mM NaCl; 3.0 Å", "conditions": "both partners purified"}, "[2]": {"target": "the molecule itself", "assay": "cryo-EM structure; Vtc1/Vtc3/Vtc4_(R264A/R266A/E426N) complex co-expressed in Expi293F and purified with 1 mM InsP6, 0.02% GDN, 25 mM Tris-HCl pH 8.0, 150 mM NaCl; 3.0 Å"}, "Vtc4_(R264A/R266A/E426N)": {"target": "B2", "assay": "cryo-EM structure; Vtc1/Vtc3/Vtc4_(R264A/R266A/E426N) complex co-expressed in Expi293F and purified with 1 mM InsP6, 0.02% GDN, 25 mM Tris-HCl pH 8.0, 150 mM NaCl; 3.0 Å", "conditions": "both partners purified"}}, "data": [{"molecule": "Nc1ncnc2c1ncn2[C@@H]1O[C@H](COP(=O)(O)OP(=O)(O)OP(=O)(O)O)[C@@H](O)[C@H]1O", "note": "[ATP]", "values": [{"measurement": "polyP synthesis, TBE-PAGE and DAPI", "setting": "[1]", "result": "we incubated VTC complex with ATP and InsP6"}]}, {"molecule": "B1", "values": [{"measurement": "stoichiometry N", "setting": "Vtc3", "result": 3}, {"measurement": "stoichiometry N", "setting": "[2]", "result": 3}, {"measurement": "stoichiometry N", "setting": "Vtc4_(R264A/R266A/E426N)", "result": 3}]}, {"molecule": "B2", "values": [{"measurement": "stoichiometry N", "setting": "Vtc3", "result": 1}]}]}
